Experiments:
[1] = biological target: T1, alpha-thrombin (Homo sapiens, UniProt P00734;P00734 328-363;364-622); assay: competition; 100-fold excess over biotinylated AYA1809007; 20 mM Tris pH 7.5, 150 mM NaCl, 0.1% BSA, 0.1% Tween 20, 100 ug/mL sheared salmon sperm DNA, 1 h, room temperature; thrombin coated at 250 nM
[2] = biological target: T1, alpha-thrombin; assay: ELISA; 20 mM Tris pH 7.5, 150 mM NaCl, 0.1% BSA, 0.1% Tween 20, 100 ug/mL sheared salmon sperm DNA, 1 h, room temperature; thrombin coated at 250 nM
[3] = biological target: T1, alpha-thrombin; assay: ELISA-based binding with competition; 100-fold excess unlabeled competitor as control; 20 mM Tris pH 7.5, 150 mM NaCl, 0.1% BSA, 0.1% Tween 20, 100 ug/mL sheared salmon sperm DNA, 1 h, room temperature; thrombin coated at 250 nM

Row | Binder | Kd [3] [nM] | further results
1 | AGGGGCTCTAGGGTGGGTAGGATGGTGAGACCGCAGCGT (structured_DNA) [AYA1809007 unlabeled] |  | binding result [1]: binds
2 | AGGGGCTCTAGGGTGGGTAGGATGGTGAGACCGCAGCGT (structured_DNA) [AYA1809007] |  | binding result [2]: binds
3 | TCGTCAAGGTACGGTTGGGGGGGTGGGTGTTGACGTTGAA (structured_DNA) [AYA1809004] | 13 | 
4 | GCGGTGTTGCTGGGGTTGGGAGGTTGGAGGAAGCAATCGC (structured_DNA) [AYA1809002] | 10 | 

— paper PMC10526462
